{"source": "paper PMC7221254", "key": {"PrfA L140F [1]": {"target": "T1, PrfA L140F (Listeria monocytogenes, UniProt P22262 1-237, L140F)", "test": "crystal structure; PDB probably one of 6QWF/6QWH/6QWK/6QWM; assignment not in material", "conditions": "protein: recombinant; tags: His6 removed by TEV, leaves N-terminal GA; chain copies: 2; blunt"}, "PrfA A218G [2]": {"target": "T2, PrfA A218G (Listeria monocytogenes, UniProt P22262 1-237, A218G)", "test": "crystal structure; PDB probably one of 6QWF/6QWH/6QWK/6QWM; assignment not in material", "conditions": "protein: recombinant; tags: His6 removed by TEV, leaves N-terminal GA; chain copies: 2; blunt"}, "PrfA L140H [3]": {"target": "T3, PrfA L140H (Listeria monocytogenes, UniProt P22262 1-237, L140H)", "test": "crystal structure; PDB probably one of 6QWF/6QWH/6QWK/6QWM; assignment not in material", "conditions": "protein: recombinant; tags: His6 removed by TEV, leaves N-terminal GA; chain copies: 2; blunt"}, "PrfA L140F [4]": {"target": "T1, PrfA L140F", "test": "SPR", "conditions": "protein: recombinant; tags: His6 removed by TEV, leaves N-terminal GA; chain copies: 2; label: 5'-biotin on strand 1; blunt"}, "PrfA WT": {"target": "PrfA WT (Listeria monocytogenes, UniProt P22262 1-237)", "test": "SPR", "conditions": "protein: recombinant; tags: His6-TEV vector pET His1a; chain copies: 2; label: 5'-biotin on strand 1; blunt"}, "PrfA A218G [5]": {"target": "T2, PrfA A218G", "test": "SPR", "conditions": "protein: recombinant; tags: His6 removed by TEV, leaves N-terminal GA; chain copies: 2; label: 5'-biotin on strand 1; blunt"}, "PrfA L140H [6]": {"target": "T3, PrfA L140H", "test": "SPR", "conditions": "protein: recombinant; tags: His6 removed by TEV, leaves N-terminal GA; chain copies: 2; label: 5'-biotin on strand 1; blunt"}}, "data": [{"binder": "hly PrfA box 30 bp (dsDNA) DNA 1: TTGAGGCATTAACATTTGTTAACGACGATA DNA 2: TATCGTCGTTAACAAATGTTAATGCCTCAA", "values": [{"measurement": "binding result", "setting": "PrfA L140F [1]", "value": "binds"}, {"measurement": "binding result", "setting": "PrfA A218G [2]", "value": "binds"}, {"measurement": "binding result", "setting": "PrfA L140H [3]", "value": "binds"}]}, {"binder": "hpt promoter 40 bp (dsDNA) DNA 1: TTTTGTTTTCTGCATGATAACAAGTGTTAATGACGGAAAG DNA 2: CTTTCCGTCATTAACACTTGTTATCATGCAGAAAACAAAA", "values": [{"measurement": "Kd", "setting": "PrfA L140F [4]", "value": 270, "unit": "nM"}, {"measurement": "Kd", "setting": "PrfA WT", "value": 1040, "unit": "nM"}, {"measurement": "Kd", "setting": "PrfA A218G [5]", "value": 55, "unit": "nM"}, {"measurement": "Kd", "setting": "PrfA L140H [6]", "value": 210, "unit": "nM"}]}, {"binder": "actA promoter 40 bp (dsDNA) DNA 1: AGTTGGGGTTAACTGATTAACAAATGTTAGAGAAAAATTA DNA 2: TAATTTTTCTCTAACATTTGTTAATCAGTTAACCCCAACT", "values": [{"measurement": "Kd", "setting": "PrfA L140F [4]", "value": 95, "unit": "nM"}, {"measurement": "Kd", "setting": "PrfA WT", "value": 690, "unit": "nM"}, {"measurement": "Kd", "setting": "PrfA A218G [5]", "value": 27, "unit": "nM"}, {"measurement": "Kd", "setting": "PrfA L140H [6]", "value": 85, "unit": "nM"}]}, {"binder": "hly promoter 40 bp (dsDNA) DNA 1: CTTTTATGTTGAGGCATTAACATTTGTTAACGACGATAAA DNA 2: TTTATCGTCGTTAACAAATGTTAATGCCTCAACATAAAAG", "values": [{"measurement": "Kd", "setting": "PrfA L140F [4]", "value": 15, "unit": "nM"}, {"measurement": "Kd", "setting": "PrfA WT", "value": 110, "unit": "nM"}, {"measurement": "Kd", "setting": "PrfA A218G [5]", "value": 4, "unit": "nM"}, {"measurement": "Kd", "setting": "PrfA L140H [6]", "value": 10, "unit": "nM"}]}]}
